B1: Aquaporin-7 (Homo sapiens), O14520 (parent)
chain: MVQASGHRRSTRGSKMVSWSVIAKIQEILQRKMVREFLAEFMSTYVMMVFGLGSVAHMVLNKKYGSYLGVNLGFGFGVTMGVHVAGRISGAHMNAAVTFANCALGRVPWRKFPVYVLGQFLGSFLAAATIYSLFYTAILHFSGGQLMVTGPVATAGIFATYLPDHMTLWRGFLNEAWLTGMLQLCLFAITDQENNPALPGTEALVIGILVVIIGVSLGMNTGYAINPSRDLPPRIFTFIAGWGKQVFSNGENWWWVPVVAPLLGAYLGGIIYLVFIGSTIPREPLKLEDSVAYEDHGITVLPKMGSHEPTISPLTPVSVSPANRSSVHPAPPLHESMALEHF
partner: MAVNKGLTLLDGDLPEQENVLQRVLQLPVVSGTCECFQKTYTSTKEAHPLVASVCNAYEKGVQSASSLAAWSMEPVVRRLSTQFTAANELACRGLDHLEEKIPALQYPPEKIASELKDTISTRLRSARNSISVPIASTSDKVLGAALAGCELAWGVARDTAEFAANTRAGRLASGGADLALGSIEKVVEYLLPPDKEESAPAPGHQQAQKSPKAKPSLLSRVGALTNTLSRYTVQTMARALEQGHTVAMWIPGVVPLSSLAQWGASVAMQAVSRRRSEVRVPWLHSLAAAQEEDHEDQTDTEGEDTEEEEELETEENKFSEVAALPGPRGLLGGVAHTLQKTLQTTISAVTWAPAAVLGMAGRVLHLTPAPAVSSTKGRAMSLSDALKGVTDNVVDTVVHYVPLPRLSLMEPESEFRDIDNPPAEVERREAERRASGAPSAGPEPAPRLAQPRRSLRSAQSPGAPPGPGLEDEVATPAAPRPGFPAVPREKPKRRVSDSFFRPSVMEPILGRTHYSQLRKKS

Variants of: B1
Settings: with plin1_human PLIN1, O60240

Row | effect of a mutation on the interaction | Variant
1 | disrupting interaction strength | MVQASGHRRAARGSKMVSWSVIAKIQEILQRKMVREFLAEFMSTYVMMVFGLGSVAHMVLNKKYGSYLGVNLGFGFGVTMGVHVAGRISGAHMNAAVTFANCALGRVPWRKFPVYVLGQFLGSFLAAATIYSLFYTAILHFSGGQLMVTGPVATAGIFATYLPDHMTLWRGFLNEAWLTGMLQLCLFAITDQENNPALPGTEALVIGILVVIIGVSLGMNTGYAINPSRDLPPRIFTFIAGWGKQVFSNGENWWWVPVVAPLLGAYLGGIIYLVFIGSTIPREPLKLEDSVAYEDHGITVLPKMGSHEPTISPLTPVSVSPANRSSVHPAPPLHESMALEHF [S10A;T11A]
